From paper doi:10.1101/2024.07.12.603347

Experiments:
[1] = biological target: Biarylitide crosslinking cytochrome P450Blt; assay: UV-visible absorbance titration
[2] = biological target: Cytochrome P450 RufO (Streptomyces atratus); assay: UV-visible absorbance titration

## Nle-RYLH (Nle-1), BytA pentapeptide MRYLH with norleucine in place of Met
[1]
  Kd: 2100 nM
[2]
  Kd: 840 nM
